Laboratory results published in paper PMC5334639, “Nucleophosmin Interacts with PIN2/TERF1-interacting Telomerase Inhibitor 1 (PinX1) and Attenuates the PinX1 Inhibition on Telomerase Activity” (Scientific Reports, 2017).

T1: PIN2/TERF1-interacting telomerase inhibitor 1 (PinX1), purified wild type (UniProt Q96BK5 1-328)
T1 construct: PinX1, wild type, cloned into pGEX-6p-2; GST removed by PreScission protease; PinX1-C ends at aa328; also called purified PinX1; source: E. coli BL21(DE3)-pLysS, purified (Glutathione Sepharose, gel filtration)
T1 sequence (looked up): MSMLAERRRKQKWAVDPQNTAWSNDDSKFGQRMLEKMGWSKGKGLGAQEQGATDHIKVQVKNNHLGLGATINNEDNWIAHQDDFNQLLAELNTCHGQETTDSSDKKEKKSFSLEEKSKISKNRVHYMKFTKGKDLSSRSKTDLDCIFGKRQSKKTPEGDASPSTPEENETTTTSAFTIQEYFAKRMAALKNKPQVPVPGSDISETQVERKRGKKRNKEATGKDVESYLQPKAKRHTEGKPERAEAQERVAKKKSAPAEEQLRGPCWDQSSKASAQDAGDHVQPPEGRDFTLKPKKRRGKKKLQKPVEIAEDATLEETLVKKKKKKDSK


How the values were obtained:
[1] = target: T2, nucleophosmin (NPM), purified wild type (UniProt P06748 1-294); experiment: pull-down; purified NPM (2 mg) immobilised on a 1 ml HiTrap NHS-activated column; 1 mg PinX1 truncation in PBS, 30 min at room temperature; washed with PBS, eluted with PBS with 1.5 M NaCl; SDS-PAGE; conditions: both partners purified
T2 construct: nucleophosmin, wild type, cloned into pRSETA-HisSumo; HisSumo tag removed by Sumo protease; Truncations end at aa294; also called wild-type NPM; purified NPM; source: E. coli BL21(DE3)-pLysS, purified (HisTrap HP, gel filtration)

[2] = target: T1, PIN2/TERF1-interacting telomerase …; experiment: pull-down; purified PinX1 (3 mg) immobilised on a 1 ml HiTrap NHS-activated column; 1 mg NPM or NPM variant in PBS, 30 min at room temperature; washed with PBS, eluted with PBS with 1.5 M NaCl; SDS-PAGE; conditions: both partners purified

binding result [1] | binding result [2] | Binder
binds | – | PinX1-C (aa254–328), purified (domain or fragment, UniProt Q96BK5 254-328, looked up, PinX1 residues 254-328; source: E. coli BL21(DE3)-pLysS, purified (Glutathione Sepharose, gel filtration)) SAPAEEQLRGPCWDQSSKASAQDAGDHVQPPEGRDFTLKPKKRRGKKKLQKPVEIAEDATLEETLVKKKKKKDSK
– | binds | NPM 1–123 (domain or fragment, UniProt P06748 1-123, looked up, source: E. coli BL21(DE3)-pLysS, purified (HisTrap HP, gel filtration)) MEDSMDMDMSPLRPQNYLFGCELKADKDYHFKVDNDENEHQLSLRTVSLGAGAKDELHIVEAEAMNYEGSPIKVTLATLKMSVQPTVSLGGFEITPPVVLRLKCGSGPVHISGQHLVAVEEDA
